Data taken from patent US20260250421A1 (BIOCYTOGEN PHARMACEUTICALS BEIJING, published 2026).

Target: T1, human PTK7 on human cancer cell lines (human, UniProt Q13308 31-1070)
T1 construct: Endogenous PTK7 of human tumour cell lines; also called PTK7 on A-431, NCI-H520, NCI-N87, SK-OV-3, BT-20, HCC1954, NCI-H226, NCI-H358, HCT116, PC-3, NCI-H292, NCI-H1975 cells
T1 sequence: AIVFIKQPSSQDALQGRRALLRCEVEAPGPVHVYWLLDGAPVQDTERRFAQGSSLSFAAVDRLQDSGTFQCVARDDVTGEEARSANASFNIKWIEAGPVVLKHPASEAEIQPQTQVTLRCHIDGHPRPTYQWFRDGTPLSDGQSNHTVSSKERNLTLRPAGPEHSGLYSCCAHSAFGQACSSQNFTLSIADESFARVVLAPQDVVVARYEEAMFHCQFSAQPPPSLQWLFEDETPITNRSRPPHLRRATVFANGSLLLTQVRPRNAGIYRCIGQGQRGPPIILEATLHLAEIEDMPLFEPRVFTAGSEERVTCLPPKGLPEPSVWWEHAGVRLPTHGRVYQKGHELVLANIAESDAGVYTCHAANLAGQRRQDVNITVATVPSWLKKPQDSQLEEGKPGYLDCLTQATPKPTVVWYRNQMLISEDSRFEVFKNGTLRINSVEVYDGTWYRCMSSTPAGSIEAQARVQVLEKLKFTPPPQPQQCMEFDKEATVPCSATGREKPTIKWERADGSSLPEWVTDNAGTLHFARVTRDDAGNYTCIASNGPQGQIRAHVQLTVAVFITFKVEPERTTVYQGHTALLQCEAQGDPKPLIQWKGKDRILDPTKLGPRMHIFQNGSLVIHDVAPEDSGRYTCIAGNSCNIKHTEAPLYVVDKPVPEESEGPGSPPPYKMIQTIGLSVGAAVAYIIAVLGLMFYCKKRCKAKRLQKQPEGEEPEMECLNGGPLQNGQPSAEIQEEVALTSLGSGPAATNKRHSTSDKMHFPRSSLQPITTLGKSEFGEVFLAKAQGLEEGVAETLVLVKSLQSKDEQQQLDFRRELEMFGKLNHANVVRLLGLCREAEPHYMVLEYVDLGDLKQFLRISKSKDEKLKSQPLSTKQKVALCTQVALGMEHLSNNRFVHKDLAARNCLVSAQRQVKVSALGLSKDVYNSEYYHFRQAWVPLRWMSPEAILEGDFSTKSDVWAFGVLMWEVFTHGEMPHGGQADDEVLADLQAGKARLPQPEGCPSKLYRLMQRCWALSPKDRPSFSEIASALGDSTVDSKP
Assay: flow cytometry on NCI-H1975 cells co-expressing PTK7 and TROP2; the single curve of the bispecific is not resolved between the two targets; anti-hIgG-Fc Alexa Fluor 647 secondary antibody, MFI [A]
Procedure: This experiment was performed to test the binding activities of the anti-PTK7/TROP2 bispecific antibodies to different tumor cell lines. NCI-H1975 cells or NUGC-4 cells were transferred to a 96-well plate at a density of 5×10⁴ cells/well respectively. The sample antibody was added to the 96-well plate, and incubated at 4° C. for 30 min.

B1: 3C4-18E9 (bispecific antibody, human IgG1, V domains shown)
VH 1: QVQLEQSRAEVKKPGESLRISCKGSGYSFTSYWISWVRQMPGKGLEWMGRIDPSDSYTNYNPSFQGHVTISADKSISTAYLQWSSLKASDTAMYYCARRDGSYFDFDYWGQGTLVTVSS
VH 2: QLQLQQSGPGLLKPSETLSLTCTVSGGSISSSYYFWGWIRQPPGKGLEWIGAIYYIGNTHYNPSLKSRVTISIDTSKNQFSLNLNSVTAADTAIYYCARYEDTWNWFDPWGQGTLVTVSS
VL: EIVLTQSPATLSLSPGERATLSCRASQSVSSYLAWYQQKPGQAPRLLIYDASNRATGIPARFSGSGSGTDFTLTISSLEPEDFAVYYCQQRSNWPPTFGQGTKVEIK
notes: which arm carries the knob is stated only for 3C4-6F7; also called anti-PTK7/TROP2 bispecific antibody 3C4-18E9
EC50 (read off the curve): ~0.7 µg/mL
